Measurements as given in patent publication US20140141994A1.
Values belong to the binder of their own block, whether it stands above or below them.

How the values were obtained:
SYNAGIS® [1] = experiment: SPR BIAcore 3000, both injected at 1 µM over immobilized SYNAGIS
SYNAGIS® [2] = experiment: SPR BIAcore 3000, SYNAGIS immobilized via primary amino groups, equilibrium binding of soluble SynBP01

SYNAGIS®, sequence (VH, as listed by the source, chain 1 of 2): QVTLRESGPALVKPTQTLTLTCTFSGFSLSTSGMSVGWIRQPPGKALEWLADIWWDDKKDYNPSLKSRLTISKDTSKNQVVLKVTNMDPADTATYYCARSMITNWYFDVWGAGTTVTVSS
SYNAGIS®, sequence (VL, as listed by the source, chain 2 of 2): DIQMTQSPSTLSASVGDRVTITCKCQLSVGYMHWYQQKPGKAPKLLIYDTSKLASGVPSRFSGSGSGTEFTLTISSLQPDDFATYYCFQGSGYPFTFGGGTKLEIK

fold increase in total response units compared to SynBP01 (SYNAGIS® [1]): 6 fold
B1: SynBP01-Fc (Fc fusion, not shown: a dimerising Fc or GST)
chain: IEVKDVTDTTALITWSPPSVLVGYTIELTYGIKDVPGDRTTIDLTEDENQYSIGNLKPDTEYEVSLISVTEFGRRRSKETFTT

Kd (SYNAGIS® [2]): 16 µM
B2: SynBP01 (designed binder)
chain: AAIEVKDVTDTTALITWSPPSVLVGYTIELTYGIKDVPGDRTTIDLTEDENQYSIGNLKPDTEYEVSLISVTEFGRRRSKETFTTGGGTLEHHHHHH
